Data taken from patent US20210009697A1 (Five Prime, published 2021).

T1: CTLA-4 (human, UniProt P16410 37-162, limits assumed)
T1 construct: also called cytotoxic T lymphocyte antigen-4
T1 sequence (looked up): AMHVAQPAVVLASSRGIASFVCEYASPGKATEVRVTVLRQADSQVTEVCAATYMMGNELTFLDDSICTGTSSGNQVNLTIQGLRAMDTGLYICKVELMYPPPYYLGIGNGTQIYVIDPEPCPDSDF

T2: BTLA (UniProt Q7Z6A9 31-151, limits assumed)
T2 construct: also called B- and T-lymphocyte attenuator
T2 sequence (looked up): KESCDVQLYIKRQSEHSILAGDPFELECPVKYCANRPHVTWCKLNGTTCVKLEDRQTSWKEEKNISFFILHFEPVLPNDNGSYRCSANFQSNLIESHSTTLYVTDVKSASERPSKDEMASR

T3: ICOS (UniProt Q9Y6W8 21-141, limits assumed)
T3 construct: also called inducible co-stimulator
T3 sequence (looked up): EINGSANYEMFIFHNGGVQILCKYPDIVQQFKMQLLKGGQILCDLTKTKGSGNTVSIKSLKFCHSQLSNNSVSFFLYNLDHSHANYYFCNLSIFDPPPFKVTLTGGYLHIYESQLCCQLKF

T4: mouse CSF1R (mouse, UniProt P09581 20-511, limits assumed)
T4 construct: In the mNFS60 proliferation assay the receptor is that of the cell line
T4 sequence (looked up): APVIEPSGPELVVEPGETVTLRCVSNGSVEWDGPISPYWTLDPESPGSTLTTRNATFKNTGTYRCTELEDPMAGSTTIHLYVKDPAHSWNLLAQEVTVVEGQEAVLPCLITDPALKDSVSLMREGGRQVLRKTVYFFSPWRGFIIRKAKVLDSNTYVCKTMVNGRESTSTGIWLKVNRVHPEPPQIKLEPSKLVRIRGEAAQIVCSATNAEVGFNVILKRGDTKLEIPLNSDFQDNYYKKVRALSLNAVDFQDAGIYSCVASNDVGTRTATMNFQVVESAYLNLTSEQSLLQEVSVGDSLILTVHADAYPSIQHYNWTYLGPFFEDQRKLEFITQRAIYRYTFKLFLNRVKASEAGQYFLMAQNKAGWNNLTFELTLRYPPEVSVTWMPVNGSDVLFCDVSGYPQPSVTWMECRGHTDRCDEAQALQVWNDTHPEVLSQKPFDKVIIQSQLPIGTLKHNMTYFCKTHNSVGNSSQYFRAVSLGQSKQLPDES


Experiments:
CTLA-4 = biological target: T1, CTLA-4; assay: in vitro, method not described
BTLA = biological target: T2, BTLA; assay: in vitro, method not described
ICOS = biological target: T3, ICOS; assay: in vitro, method not described
mouse CSF1R = biological target: T4, mouse CSF1R; assay: not described
[1] = biological target: T5, human colony stimulating factor 1 receptor (CSF1R) (human, UniProt P07333 20-506, limits assumed); assay: not described
T5 construct: In the monocyte assays the receptor is the endogenous one on primary human monocytes; also called hCSF1R
T5 sequence (P07333 20-506 limits assumed): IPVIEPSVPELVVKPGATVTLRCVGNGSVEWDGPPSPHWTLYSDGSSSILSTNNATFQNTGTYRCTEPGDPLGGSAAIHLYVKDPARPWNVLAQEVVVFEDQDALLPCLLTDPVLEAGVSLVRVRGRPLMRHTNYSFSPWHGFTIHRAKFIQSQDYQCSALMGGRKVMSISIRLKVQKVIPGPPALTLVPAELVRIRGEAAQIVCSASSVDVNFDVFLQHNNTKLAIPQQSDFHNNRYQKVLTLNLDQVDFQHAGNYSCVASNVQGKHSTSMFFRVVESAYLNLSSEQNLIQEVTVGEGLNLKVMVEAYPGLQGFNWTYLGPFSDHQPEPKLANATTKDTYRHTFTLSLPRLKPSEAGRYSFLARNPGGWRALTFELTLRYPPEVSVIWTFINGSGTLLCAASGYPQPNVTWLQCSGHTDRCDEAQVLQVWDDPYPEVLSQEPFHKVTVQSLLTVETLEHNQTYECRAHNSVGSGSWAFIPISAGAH

| binding result (CTLA-4) | binding result (BTLA) | binding result (ICOS) | binding result (mouse CSF1R) | binding result [1] | Binder |
| --- | --- | --- | --- | --- | --- |
| no binding | no binding | no binding |  |  | Nivolumab (antibody, human IgG4 S228P, kappa, V domains shown, also called Opdivo; 5C4) VH: QVQLVESGGGVVQPGRSLRLDCKASGITFSNSGMHWVRQAPGKGLEWVAVIWYDGSKRYYADSVKGRFTISRDNSKNTLFLQMNSLRAEDTAVYYCATNDDYWGQGTLVTVSS VL: EIVLTQSPATLSLSPGERATLSCRASQSVSSYLAWYQQKPGQAPRLLIYDASNRATGIPARFSGSGSGTDFTLTISSLEPEDFAVYYCQQSSNWPRTFGQGTKVEIKR |
|  |  |  | no binding | binds | Cabiralizumab (antibody, human IgG4 S228P, kappa, V domains shown, also called FPA008; HuAb1) VH: QVQLVQSGAEVKKPGSSVKVSCKASGYTFTDNYMIWVRQAPGQGLEWMGDINPYNGGTTFNQKFKGRVTITADKSTSTAYMELSSLRSEDTAVYYCARESPYFSNLYVMDYWGQGTLVTVSS VL: EIVLTQSPATLSLSPGERATLSCKASQSVDYDGDNYMNWYQQKPGQAPRLLIYAASNLESGIPARFSGSGSGTDFTLTISSLEPEDFAVYYCHLSNEDLSTFGGGTKVEIKR |
